Reference: PMC2714985 (Journal of immunology (Baltimore, Md. : 1950), 2009)

Molecular target: rat collagen type I (rat, UniProt P02454 152-1207; P02466 86-1125)
Test: SPR

Sequence of rat collagen type I (P02454 152-1207, chain 1 of 2): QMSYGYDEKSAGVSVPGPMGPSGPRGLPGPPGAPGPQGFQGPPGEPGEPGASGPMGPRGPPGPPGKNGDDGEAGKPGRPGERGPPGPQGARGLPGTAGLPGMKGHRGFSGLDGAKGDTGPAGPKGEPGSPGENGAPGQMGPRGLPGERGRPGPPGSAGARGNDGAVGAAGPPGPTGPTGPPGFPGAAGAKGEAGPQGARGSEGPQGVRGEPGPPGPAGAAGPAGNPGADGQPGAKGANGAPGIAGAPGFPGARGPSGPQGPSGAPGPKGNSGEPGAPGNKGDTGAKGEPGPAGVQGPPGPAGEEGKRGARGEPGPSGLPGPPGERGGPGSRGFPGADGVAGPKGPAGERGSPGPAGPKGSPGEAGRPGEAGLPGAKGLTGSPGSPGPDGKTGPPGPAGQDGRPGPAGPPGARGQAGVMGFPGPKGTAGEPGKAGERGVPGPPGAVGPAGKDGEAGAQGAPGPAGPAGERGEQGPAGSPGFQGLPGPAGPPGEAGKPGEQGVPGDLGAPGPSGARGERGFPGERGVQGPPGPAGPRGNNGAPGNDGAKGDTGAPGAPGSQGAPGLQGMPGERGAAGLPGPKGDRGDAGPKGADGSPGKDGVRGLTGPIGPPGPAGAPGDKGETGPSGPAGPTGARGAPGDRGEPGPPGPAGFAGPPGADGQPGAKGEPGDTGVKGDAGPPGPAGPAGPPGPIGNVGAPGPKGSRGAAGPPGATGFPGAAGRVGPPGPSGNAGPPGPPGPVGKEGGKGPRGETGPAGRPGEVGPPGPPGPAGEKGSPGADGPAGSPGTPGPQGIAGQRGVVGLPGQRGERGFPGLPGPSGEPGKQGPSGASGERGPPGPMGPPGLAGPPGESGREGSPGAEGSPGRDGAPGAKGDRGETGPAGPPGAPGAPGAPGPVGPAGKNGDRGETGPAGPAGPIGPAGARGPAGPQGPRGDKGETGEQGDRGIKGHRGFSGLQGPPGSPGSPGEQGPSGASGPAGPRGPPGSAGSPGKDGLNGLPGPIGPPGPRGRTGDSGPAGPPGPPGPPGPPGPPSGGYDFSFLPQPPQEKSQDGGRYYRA
Sequence of rat collagen type I (P02466 86-1125, chain 2 of 2): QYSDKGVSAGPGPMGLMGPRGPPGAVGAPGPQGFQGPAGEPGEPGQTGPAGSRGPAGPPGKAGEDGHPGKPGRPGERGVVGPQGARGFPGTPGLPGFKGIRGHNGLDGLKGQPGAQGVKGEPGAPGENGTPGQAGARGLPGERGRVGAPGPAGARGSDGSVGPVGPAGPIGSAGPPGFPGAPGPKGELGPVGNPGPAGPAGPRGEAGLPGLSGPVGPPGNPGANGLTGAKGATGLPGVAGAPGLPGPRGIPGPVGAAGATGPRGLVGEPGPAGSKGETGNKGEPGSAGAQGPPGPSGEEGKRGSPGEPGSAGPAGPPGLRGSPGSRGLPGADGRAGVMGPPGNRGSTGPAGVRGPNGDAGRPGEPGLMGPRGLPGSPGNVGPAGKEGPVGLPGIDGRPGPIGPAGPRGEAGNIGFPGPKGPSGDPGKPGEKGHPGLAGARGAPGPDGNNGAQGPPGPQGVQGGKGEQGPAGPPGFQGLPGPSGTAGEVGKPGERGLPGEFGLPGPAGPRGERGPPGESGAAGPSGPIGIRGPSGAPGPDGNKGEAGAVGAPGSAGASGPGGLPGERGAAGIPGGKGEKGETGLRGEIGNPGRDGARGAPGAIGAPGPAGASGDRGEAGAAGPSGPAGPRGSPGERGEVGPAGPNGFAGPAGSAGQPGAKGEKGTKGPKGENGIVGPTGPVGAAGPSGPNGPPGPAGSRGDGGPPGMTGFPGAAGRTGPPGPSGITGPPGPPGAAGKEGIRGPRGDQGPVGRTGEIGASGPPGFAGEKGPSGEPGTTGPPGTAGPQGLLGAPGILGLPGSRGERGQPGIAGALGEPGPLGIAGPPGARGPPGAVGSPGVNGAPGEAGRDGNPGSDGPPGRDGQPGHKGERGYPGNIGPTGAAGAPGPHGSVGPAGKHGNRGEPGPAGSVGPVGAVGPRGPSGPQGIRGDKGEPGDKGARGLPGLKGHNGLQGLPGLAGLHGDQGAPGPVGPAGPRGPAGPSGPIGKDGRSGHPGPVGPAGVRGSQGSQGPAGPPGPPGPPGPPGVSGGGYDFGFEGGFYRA

Kd: 145 nM
koff: 0.0456 s⁻¹
B1: LAIR-1/Fc wt fusion protein (Fc fusion, human, UniProt Q6GTX8 22-165, looked up)
chain: QEEDLPRPSISAEPGTVIPLGSHVTFVCRGPVGVQTFRLERDSRSTYNDTEDVSQASPSESEARFRIDSVREGNAGLYRCIYYKPPKWSEQSDYLELLVKESSGGPDSPDTEPGSSAGPTQRPSDNSHNEHAPASQGLKAEHLY
